According to ChEMBL document CHEMBL1152109, “Synthesis and biological evaluation of a new series of dihydrofolate reductase inhibitors based on the 4-(2,6-diamino-5-pyrimidinyl)alkyl-L-glutamic acid structure” (Bioorg Med Chem Lett, 1996):

How the values were obtained:
[1] = Ratio of Vmax/Km was evaluated.
Dihydrofolate reductase = target: T1, Dihydrofolate reductase (Homo sapiens, UniProt P00374); test: Binding affinity against Recombinant human dihydrofolate reductase (DHFR)
T1 sequence (P00374 whole entry): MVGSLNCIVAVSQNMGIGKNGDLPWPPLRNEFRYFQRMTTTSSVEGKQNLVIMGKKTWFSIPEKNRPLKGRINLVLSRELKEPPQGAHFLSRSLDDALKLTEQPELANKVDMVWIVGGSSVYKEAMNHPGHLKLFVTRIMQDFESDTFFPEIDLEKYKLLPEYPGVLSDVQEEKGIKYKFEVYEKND

Thymidylate synthase [2] = target: T2, Thymidylate synthase (Homo sapiens, UniProt P04818); test: Binding affinity against Recombinant human thymidylate synthase (TS).
T2 sequence (P04818 whole entry): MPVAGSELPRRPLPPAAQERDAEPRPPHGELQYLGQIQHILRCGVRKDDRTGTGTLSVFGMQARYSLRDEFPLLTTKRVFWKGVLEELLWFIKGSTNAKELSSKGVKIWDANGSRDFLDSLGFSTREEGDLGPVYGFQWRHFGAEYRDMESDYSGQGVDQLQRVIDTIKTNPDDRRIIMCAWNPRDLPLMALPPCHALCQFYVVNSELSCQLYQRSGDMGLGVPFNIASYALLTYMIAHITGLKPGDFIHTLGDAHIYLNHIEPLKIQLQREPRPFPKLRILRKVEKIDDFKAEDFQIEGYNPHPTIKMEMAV

[3] = Binding affinity against human monofunctional glycinamide ribonucleotide formyl transferase (GARFT).
Thymidylate synthase [4] = target: T2, Thymidylate synthase; test: Binding affinity against Recombinant human thymidylate synthase (TS)
[5] = Binding affinity against human monofunctional glycinamide ribonucleotide formyl transferase (GARFT)
[6] = substrate: Nc1nc2[nH]cc(CCc3ccc(C(=O)N[C@@H](CCC(=O)O)C(=O)O)cc3)c2c(=O)[nH]1; test: (§1) Substrate activity against folyl-poly-glutamate synthetase isolated from hog liver; conditions: Sus scrofa
[7] = substrate: Nc1nc2c(c(=O)[nH]1)C[C@@H](CCc1ccc(C(=O)N[C@@H](CCC(=O)O)C(=O)O)cc1)CN2; test: as §1; conditions: Sus scrofa
[8] = substrate: Nc1ncc(CCCCc2ccc(C(=O)N[C@@H](CCC(=O)O)C(=O)O)cc2)c(N)n1; test: as §1; conditions: Sus scrofa
[9] = substrate: Nc1ncc(CCCc2ccc(C(=O)N[C@@H](CCC(=O)O)C(=O)O)cc2)c(N)n1; test: as §1; conditions: Sus scrofa
[10] = substrate: CN(Cc1cnc2nc(N)nc(N)c2n1)c1ccc(C(=O)N[C@@H](CCC(=O)O)C(=O)O)cc1; test: as §1; conditions: Sus scrofa
[11] = substrate: CCC(Cc1cnc2nc(N)nc(N)c2n1)c1ccc(C(=O)N[C@@H](CCC(=O)O)C(=O)O)cc1; test: Substrate activity against folyl-poly-glutamate synthetase (FPGS) (isolated from hog liver).; conditions: Sus scrofa

Molecule `Nc1ncc(CCCCc2ccc(C(=O)N[C@@H](CCC(=O)O)C(=O)O)cc2)c(N)n1` has a Ratio [1] of 34, a Ki (Dihydrofolate reductase) of 0.005 nM and a Ki (Thymidylate synthase [2]) of over 5 µM. It also gave a Ki [3] of 62 µM.

`Nc1nc2[nH]cc(CCc3ccc(C(=O)N[C@@H](CCC(=O)O)C(=O)O)cc3)c2c(=O)[nH]1` showed a Ratio [1] of 381.

With `Nc1ncc(CCCc2ccc(C(=O)N[C@@H](CCC(=O)O)C(=O)O)cc2)c(N)n1` the Ki (Thymidylate synthase [4]) was over 5 µM, the Ki (Dihydrofolate reductase) was 0.12 nM and the Ki [5] was 54.3 µM.

`CN(Cc1cnc2nc(N)nc(N)c2n1)c1ccc(C(=O)N[C@@H](CCC(=O)O)C(=O)O)cc1` gave a Ratio [1] of 4.3.

Molecule `CCC(Cc1cnc2nc(N)nc(N)c2n1)c1ccc(C(=O)N[C@@H](CCC(=O)O)C(=O)O)cc1` (stereo partly drawn) has a Ratio [1] of 19.

`Nc1nc2c(c(=O)[nH]1)CC(CCc1ccc(C(=O)N[C@@H](CCC(=O)O)C(=O)O)cc1)CN2` (single isomer, unassigned) gave a Ratio [1] of 60.

B1: Folylpolyglutamate synthase, mitochondrial (Homo sapiens), Q05932 (protein)
chain: MSRARSHLRAALFLAAASARGITTQVAARRGLSAWPVPQEPSMEYQDAVRMLNTLQTNAGYLEQVKRQRGDPQTQLEAMELYLARSGLQVEDLDRLNIIHVTGTKGKGSTCAFTECILRSYGLKTGFFSSPHLVQVRERIRINGQPISPELFTKYFWRLYHRLEETKDGSCVSMPPYFRFLTLMAFHVFLQEKVDLAVVEVGIGGAYDCTNIIRKPVVCGVSSLGIDHTSLLGDTVEKIAWQKGGIFKQGVPAFTVLQPEGPLAVLRDRAQQISCPLYLCPMLEALEEGGPPLTLGLEGEHQRSNAALALQLAHCWLQRQDRHGAGEPKASRPGLLWQLPLAPVFQPTSHMRLGLRNTEWPGRTQVLRRGPLTWYLDGAHTASSAQACVRWFRQALQGRERPSGGPEVRVLLFNATGDRDPAALLKLLQPCQFDYAVFCPNLTEVSSTGNADQQNFTVTLDQVLLRCLEHQQHWNHLDEEQASPDLWSAPSPEPGGSASLLLAPHPPHTCSASSLVFSCISHALQWISQGRDPIFQPPSPPKGLLTHPVAHSGASILREAAAIHVLVTGSLHLVGGVLKLLEPALSQ
Work on B1 yielded a Km [6] of 1.9 µM, a Vmax [6] of 725 nM/h/mg and a Km [7] of 16.4 µM. For the same molecule, the Vmax [7] was 977 nM/h/mg, the Km [8] was 20 µM and the Vmax [8] was 685 nM/h/mg. It also gave a Km [9] of 5.1 µM, a Vmax [9] of 758 nM/h/mg and a Km [10] of 116 µM. The Vmax [10] was 498 nM/h/mg, the Km [11] was 13.3 µM and the Vmax [11] was 258 nM/h/mg.
